# According to publication PMC2756588:
# T1: Lsb4, P32793
# T1 sequence (P32793 402-468, looked up): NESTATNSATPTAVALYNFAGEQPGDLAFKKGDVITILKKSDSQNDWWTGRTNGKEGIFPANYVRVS
# T2: Pex13, P80667
# T2 sequence (P80667 295-386, looked up): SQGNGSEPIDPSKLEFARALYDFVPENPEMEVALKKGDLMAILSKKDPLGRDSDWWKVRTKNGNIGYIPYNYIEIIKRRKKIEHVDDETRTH
# T3: Nbp2, Q12163
# T3 sequence (Q12163 103-180, looked up): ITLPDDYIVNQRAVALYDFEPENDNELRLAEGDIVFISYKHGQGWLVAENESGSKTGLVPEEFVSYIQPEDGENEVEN
# T4: Boi1, P38041
# T4 sequence (P38041 1-86, looked up): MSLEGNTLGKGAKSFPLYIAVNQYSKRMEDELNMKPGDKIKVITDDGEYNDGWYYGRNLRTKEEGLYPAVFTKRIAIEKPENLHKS
# T5: Lsb3, P43603
# T5 sequence (P43603 385-451, looked up): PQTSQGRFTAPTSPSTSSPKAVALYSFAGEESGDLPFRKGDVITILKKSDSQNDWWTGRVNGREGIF
# T6: Cdc25, P04821
# T6 sequence (P04821 50-136, looked up): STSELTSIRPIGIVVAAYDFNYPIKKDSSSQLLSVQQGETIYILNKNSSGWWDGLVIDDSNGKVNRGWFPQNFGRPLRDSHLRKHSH
# T7: Bud14, P27637
# T7 sequence (P27637 247-328, looked up): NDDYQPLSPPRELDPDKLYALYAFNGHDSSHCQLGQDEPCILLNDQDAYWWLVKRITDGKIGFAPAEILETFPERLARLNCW
# T8: Myo5, Q04439
# T8 sequence (Q04439 1072-1160, looked up): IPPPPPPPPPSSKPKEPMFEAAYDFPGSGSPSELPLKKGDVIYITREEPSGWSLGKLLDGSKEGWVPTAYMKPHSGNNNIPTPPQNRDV
# T9: Pin3, Q06449
# T9 sequence (Q06449 53-122, looked up): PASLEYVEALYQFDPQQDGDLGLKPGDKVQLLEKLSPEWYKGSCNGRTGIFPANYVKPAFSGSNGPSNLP
# T10: Abp1, P15891
# T10 sequence (P15891 535-592, looked up): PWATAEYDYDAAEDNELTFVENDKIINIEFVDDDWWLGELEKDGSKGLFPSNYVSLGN
# T11: Sla1-3, P32790
# T11 sequence (P32790 344-424, looked up): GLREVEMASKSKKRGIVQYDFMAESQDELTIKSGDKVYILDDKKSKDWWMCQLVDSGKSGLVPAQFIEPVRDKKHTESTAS
# T12: Sla1-2, P32790
# T12 sequence (P32790 60-140, looked up): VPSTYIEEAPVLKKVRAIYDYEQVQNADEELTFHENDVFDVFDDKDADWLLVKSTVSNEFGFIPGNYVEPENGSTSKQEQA
# T13: Cyk3, Q07533
# T13 sequence (Q07533 1-83, looked up): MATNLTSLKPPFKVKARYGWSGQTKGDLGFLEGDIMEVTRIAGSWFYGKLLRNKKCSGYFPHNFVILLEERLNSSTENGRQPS
# T14: Fus1, P11710
# T14 sequence (P11710 432-512, looked up): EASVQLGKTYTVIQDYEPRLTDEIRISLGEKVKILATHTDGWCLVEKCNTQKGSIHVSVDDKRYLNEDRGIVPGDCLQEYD
# T15: Lsb1, P53281
# T15 sequence (P53281 45-122, looked up): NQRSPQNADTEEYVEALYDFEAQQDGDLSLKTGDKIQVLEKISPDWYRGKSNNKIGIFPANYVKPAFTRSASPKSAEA
# T16: Bzz1-1, P38822
# T16 sequence (P38822 478-572, looked up): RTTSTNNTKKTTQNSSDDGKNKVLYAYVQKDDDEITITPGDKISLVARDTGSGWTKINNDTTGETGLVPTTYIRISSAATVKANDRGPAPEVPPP
# T17: Boi2, P39969
# T17 sequence (P39969 32-116, looked up): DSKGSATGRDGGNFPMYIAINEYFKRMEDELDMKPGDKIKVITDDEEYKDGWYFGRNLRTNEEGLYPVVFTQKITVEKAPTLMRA
# T18: Bzz1-2, P38822
# T18 sequence (P38822 568-633, looked up): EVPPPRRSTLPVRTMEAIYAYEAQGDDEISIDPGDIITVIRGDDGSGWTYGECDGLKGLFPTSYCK
# T19: Hse1, P38753
# T19 sequence (P38753 208-285, looked up): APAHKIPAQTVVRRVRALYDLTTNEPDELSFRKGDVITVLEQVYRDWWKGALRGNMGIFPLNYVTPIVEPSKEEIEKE
# T20: Bbc1, P47068
# T20 sequence (P47068 1-78, looked up): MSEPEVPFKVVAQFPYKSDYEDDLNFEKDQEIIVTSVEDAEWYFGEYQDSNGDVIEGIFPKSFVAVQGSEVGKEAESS
# T21: Hof1, Q05080
# T21 sequence (Q05080 590-669, looked up): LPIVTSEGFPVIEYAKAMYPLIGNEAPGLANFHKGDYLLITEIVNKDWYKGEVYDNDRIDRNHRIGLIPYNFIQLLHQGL
# Key:
# Test in all cases: SPOT array
# [1] = molecular target: Sho1, P40073; details: median of control spots 1148
# [2] = molecular target: T1, Lsb4, P32793; details: median of control spots 397
# [3] = molecular target: T2, Pex13, P80667; details: median of control spots 1341
# [4] = molecular target: Rvs167, P39743; details: median of control spots 2707
# [5] = molecular target: Bem1-1, P29366; details: median of control spots 4282
# [6] = molecular target: T3, Nbp2, Q12163; details: median of control spots 357
# [7] = molecular target: T4, Boi1, P38041; details: median of control spots 1162
# [8] = molecular target: Bem1-2, P29366; details: median of control spots 4347
# [9] = molecular target: T5, Lsb3, P43603; details: median of control spots 406
# [10] = molecular target: GST; details: median of control spots 978
# [11] = molecular target: T6, Cdc25, P04821; details: median of control spots 969
# [12] = molecular target: Myo3, P36006; details: median of control spots 468
# [13] = molecular target: T7, Bud14, P27637; details: median of control spots 956
# [14] = molecular target: T8, Myo5, Q04439; details: median of control spots 471
# [15] = molecular target: T9, Pin3, Q06449; details: median of control spots 2171
# [16] = molecular target: T10, Abp1, P15891; details: median of control spots 935
# [17] = molecular target: T11, Sla1-3, P32790; details: median of control spots 5475
# [18] = molecular target: T12, Sla1-2, P32790; details: median of control spots 712
# [19] = molecular target: T13, Cyk3, Q07533; details: median of control spots 1451
# [20] = molecular target: T14, Fus1, P11710; details: median of control spots 1200
# [21] = molecular target: T15, Lsb1, P53281; details: median of control spots 388
# [22] = molecular target: T16, Bzz1-1, P38822; details: median of control spots 4446
# [23] = molecular target: T17, Boi2, P39969; details: median of control spots 1161
# [24] = molecular target: T18, Bzz1-2, P38822; details: median of control spots 4538
# [25] = molecular target: T19, Hse1, P38753; details: median of control spots 1727
# [26] = molecular target: T20, Bbc1, P47068; details: median of control spots 796
# [27] = molecular target: T21, Hof1, Q05080; details: median of control spots 4086
# Sequence of Bem1-2, P29366 (P29366 139-227): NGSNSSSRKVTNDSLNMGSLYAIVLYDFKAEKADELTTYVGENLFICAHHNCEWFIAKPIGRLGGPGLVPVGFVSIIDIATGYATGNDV
# Sequence of Bem1-1, P29366 (P29366 55-141): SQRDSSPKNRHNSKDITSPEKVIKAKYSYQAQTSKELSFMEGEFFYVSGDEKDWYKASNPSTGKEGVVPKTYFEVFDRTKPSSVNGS
# Sequence of Rvs167, P39743 (P39743 419-482): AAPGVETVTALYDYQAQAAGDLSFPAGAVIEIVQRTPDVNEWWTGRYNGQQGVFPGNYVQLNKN
# Sequence of Sho1, P40073 (P40073 287-367): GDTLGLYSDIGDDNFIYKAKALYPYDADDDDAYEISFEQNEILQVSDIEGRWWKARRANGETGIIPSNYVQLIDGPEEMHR
Binder,SPOT intensity [1],SPOT intensity [2],SPOT intensity [3],SPOT intensity [4],SPOT intensity [5],SPOT intensity [6],SPOT intensity [7],SPOT intensity [8],SPOT intensity [9],SPOT intensity [10],SPOT intensity [11],SPOT intensity [12],SPOT intensity [13],SPOT intensity [14],SPOT intensity [15],SPOT intensity [16],SPOT intensity [17],SPOT intensity [18],SPOT intensity [19],SPOT intensity [20],further results
SLSRRRFSLPSMPNV,84,9,28,4,0,34,1,53,4,0,35,27,15,4,66,70,388,2,1,27,SPOT intensity [21]: 1050; SPOT intensity [22]: 3; SPOT intensity [23]: 1; SPOT intensity [24]: 17; SPOT intensity [25]: 97; SPOT intensity [26]: 98; SPOT intensity [27]: 77
RKLRTVPGVPLIHLT,6,5,4,43,0,0,0,0,2,1,0,8,3,0,3,5,5,1,0,2,SPOT intensity [21]: 0; SPOT intensity [22]: 1; SPOT intensity [23]: 0; SPOT intensity [24]: 0; SPOT intensity [25]: 0; SPOT intensity [26]: 34; SPOT intensity [27]: 2
GRLRPKRIAPWHLIQ,83,0,8,8,0,10,2,6,0,0,0,0,3,0,5,25,41,0,1,6,SPOT intensity [21]: 0; SPOT intensity [22]: 0; SPOT intensity [23]: 1; SPOT intensity [24]: 4; SPOT intensity [25]: 9; SPOT intensity [26]: 57; SPOT intensity [27]: 1
GLRRARYKFPGQQKI,69,2,2,6,0,22,3,2,0,3,15,4,9,0,4,47,50,1,0,14,SPOT intensity [21]: 71; SPOT intensity [22]: 2; SPOT intensity [23]: 0; SPOT intensity [24]: 1; SPOT intensity [25]: 12; SPOT intensity [26]: 79; SPOT intensity [27]: 6
AGKRRLPLVRFKASD,260,18,4,6,2,125,16,3,16,4,55,22,28,2,8,262,27,3,9,23,SPOT intensity [21]: 18; SPOT intensity [22]: 0; SPOT intensity [23]: 1; SPOT intensity [24]: 2; SPOT intensity [25]: 9; SPOT intensity [26]: 507; SPOT intensity [27]: 7
IKKRNKIRLPSGSPE,122,6,2,4,1,24,5,0,0,3,18,7,10,0,4,136,43,0,9,52,SPOT intensity [21]: 104; SPOT intensity [22]: 2; SPOT intensity [23]: 3; SPOT intensity [24]: 4; SPOT intensity [25]: 6; SPOT intensity [26]: 101; SPOT intensity [27]: 6
